According to US20040116333A1 (ABGENOMICS COOPERATIEF U A, published 2004):

T1: recombinant mouse P-selectin/Fc chimera (R&D Systems) (mouse; human, UniProt Q01102 42-709)
T1 construct: range 42-709; The CD33 signal peptide (Met1-Ala16) of the construct is left out; also called mouse P-Selectin fused to the Fc region of human IgG1; P-selectin-Fc fusion protein; not shown: Human IgG1 constant region, Pro100-Lys330
T1 sequence: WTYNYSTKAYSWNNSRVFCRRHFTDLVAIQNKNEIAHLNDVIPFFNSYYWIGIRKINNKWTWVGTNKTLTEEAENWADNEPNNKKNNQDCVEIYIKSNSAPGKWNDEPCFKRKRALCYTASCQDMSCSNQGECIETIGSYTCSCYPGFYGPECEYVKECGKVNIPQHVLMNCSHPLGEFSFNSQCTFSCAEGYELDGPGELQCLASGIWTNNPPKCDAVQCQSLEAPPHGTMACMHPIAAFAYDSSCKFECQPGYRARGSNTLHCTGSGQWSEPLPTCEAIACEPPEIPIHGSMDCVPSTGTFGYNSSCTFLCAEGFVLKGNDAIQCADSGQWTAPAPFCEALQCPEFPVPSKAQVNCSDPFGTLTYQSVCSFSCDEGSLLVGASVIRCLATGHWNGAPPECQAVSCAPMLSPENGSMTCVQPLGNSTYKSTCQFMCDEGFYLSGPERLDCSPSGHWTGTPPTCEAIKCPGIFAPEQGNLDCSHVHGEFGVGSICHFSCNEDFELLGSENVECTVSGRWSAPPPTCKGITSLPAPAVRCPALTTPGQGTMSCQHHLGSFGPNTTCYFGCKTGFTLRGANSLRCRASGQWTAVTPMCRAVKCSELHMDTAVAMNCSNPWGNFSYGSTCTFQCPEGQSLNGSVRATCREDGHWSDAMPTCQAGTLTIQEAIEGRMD


Assays:
[1] = target: human P-selectin glycoprotein ligand-1 (PSGL-1) (human) (UniProt Q14242); assay: cell-based or functional assay
Sequence of human P-selectin glycoprotein ligand-1 (PSGL-1) (human) (Q14242 42-412): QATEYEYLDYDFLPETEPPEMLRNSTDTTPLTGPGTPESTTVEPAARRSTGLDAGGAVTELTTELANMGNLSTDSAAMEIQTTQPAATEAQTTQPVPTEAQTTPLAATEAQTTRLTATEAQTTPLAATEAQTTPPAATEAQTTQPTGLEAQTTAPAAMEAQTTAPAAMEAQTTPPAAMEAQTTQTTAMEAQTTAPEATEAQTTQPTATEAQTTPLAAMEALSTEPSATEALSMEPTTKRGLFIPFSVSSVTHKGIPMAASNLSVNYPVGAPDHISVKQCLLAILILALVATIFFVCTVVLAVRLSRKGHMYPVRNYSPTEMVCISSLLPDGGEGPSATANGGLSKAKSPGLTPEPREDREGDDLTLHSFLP

[2] = target: T1, recombinant mouse P-selectin/Fc chimera …; assay: flow cytometry on Con A-activated mouse T cells, FITC-anti human IgG Fc detection
Description: To determine ability of selectins (P-Selectin, E-Selectin, and L-Selectin) to bind to activated T cells, freshly prepared splenocytes from C57BL/6 mice were activated and harvested at days 2, 4, and 6. Non-activated T cells (i.e., freshly prepared splenocytes at day 0) were also analyzed. The day 2 sample constituted 3×10⁶ cells/ml of splenocytes that were activated with 2 ug/ml of Concanavalin A (Con A) in DMEM+10% FBS for 2 days. Live cells were isolated by Ficoll gradient separation. The day 4 sample was obtained from cells that were activated with Con A for 3 days and maintained in medium containing 5 ng/ml of IL-2 for an additional day. The day 6 sample was derived from cells that were activated with Con A for 3 days and maintained in 5 ng/ml of IL-2 for 3 days.
To assay the samples by FACS analysis, 2×10⁵ cells per well from days 0, 2, 4 and 6 were incubated at 4° C. for 30 minutes with 40 ul/well of mouse P-Selectin, E-Selectin, or L-Selectin fused to the Fc region of human IgG1 (R&D Systems, Minneapolis, Minn.) at concentrations ranging from 20 ug/ml with two-fold serial dilution to 0.156 ug/ml. Following the incubation, cells were washed with 1× FACScan buffer (1×PBS without calcium and magnesium ions from Biochrom AG, Berlin and 2% FBS). […]

percentage of apoptotic cells (Annexin V / PI, FACS) in PHA-activated human PBMC, day 3, with rabbit anti-mouse Ig cross-linker [1]	percentage of apoptotic cells (Annexin V / PI, FACS) in PHA-activated human PBMC, day 8, with rabbit anti-mouse Ig cross-linker [1]	binding result [2]	Molecule
8.5%	24%		anti-PSGL-1 antibody clone KPL-1 (BD PharMingen)
		binds	mouse P-selectin glycoprotein ligand-1 (PSGL-1), first designated T cell apoptosis inducing protein (TAIP) (receptor, UniProt Q62170 42-397, looked up, whole, on cells; Endogenous protein on mouse T cells; For immunoprecipitation and western blot it was solubilised from RL1 T cell lysates; also called TAIP antigen; CD162) QVVGDDDFEDPDYTYNTDPPELLKNVTNTVAAHPELPTTVVMLERDSTSAGTSERATEKIATTDPTAPGTGGTAVGMLSTDSATQWSLTSVETVQPASTEVETSQPAPMEAETSQPAPMEAETSQPAPMEAETSQPAPMEADTSQPAPMEAETSQPAPNEAETSKPAPTEAETSKPAPTEAETTQLPRIQAVKTLFTTSAATEVPSTEPTTMETASTESNESTIFLGPSVTHLPDSGLKKGLIVTPGNSPAPTLPGSSDLIPVKQCLLIILILASLATIFLVCTVVLAVRLSRKTHMYPVRNYSPTEMICISSLLPEGGDGAPVTANGGLPKVQDLKTEPSGDRDGDDLTLHSFLP
